# T1: IRF3 (human (endogenous in HEK293T)), Q14653
# T1 chain: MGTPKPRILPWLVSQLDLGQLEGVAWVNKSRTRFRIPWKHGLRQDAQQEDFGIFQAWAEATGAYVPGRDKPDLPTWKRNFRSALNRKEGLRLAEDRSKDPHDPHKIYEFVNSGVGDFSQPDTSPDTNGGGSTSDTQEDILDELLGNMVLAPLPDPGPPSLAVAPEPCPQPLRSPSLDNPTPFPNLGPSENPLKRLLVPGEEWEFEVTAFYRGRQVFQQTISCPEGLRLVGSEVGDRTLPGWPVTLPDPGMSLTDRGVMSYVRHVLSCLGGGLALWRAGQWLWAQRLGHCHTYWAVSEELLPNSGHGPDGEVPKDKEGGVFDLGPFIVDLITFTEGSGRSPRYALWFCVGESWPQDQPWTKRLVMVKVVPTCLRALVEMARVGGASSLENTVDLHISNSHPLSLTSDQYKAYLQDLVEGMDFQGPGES
# Molecular target: T1, IRF3 (human (endogenous in HEK293T)), …
# Assay: native gel or EMSA; cell-free assay: HEK293T S1 crude lysate with vRNA, 30 °C, 1 h; Native-PAGE and immunoblotting of IRF3
# Conditions: remark: other sources report otherwise
binder,measurement,value
"IRF3, Q14653 1-427 (natural protein) MGTPKPRILPWLVSQLDLGQLEGVAWVNKSRTRFRIPWKHGLRQDAQQEDFGIFQAWAEATGAYVPGRDKPDLPTWKRNFRSALNRKEGLRLAEDRSKDPHDPHKIYEFVNSGVGDFSQPDTSPDTNGGGSTSDTQEDILDELLGNMVLAPLPDPGPPSLAVAPEPCPQPLRSPSLDNPTPFPNLGPSENPLKRLLVPGEEWEFEVTAFYRGRQVFQQTISCPEGLRLVGSEVGDRTLPGWPVTLPDPGMSLTDRGVMSYVRHVLSCLGGGLALWRAGQWLWAQRLGHCHTYWAVSEELLPNSGHGPDGEVPKDKEGGVFDLGPFIVDLITFTEGSGRSPRYALWFCVGESWPQDQPWTKRLVMVKVVPTCLRALVEMARVGGASSLENTVDLHISNSHPLSLTSDQYKAYLQDLVEGMDFQGPGES",stoichiometry N,2
